Nine molecules from patent publication US20190338026A1 (University of Texas, published 2019) can be followed below.

The target of test [1] is T1, LAIR1 on LAIR1 reporter cells (human, UniProt Q6GTX8 22-165, limits assumed).
T1 chain: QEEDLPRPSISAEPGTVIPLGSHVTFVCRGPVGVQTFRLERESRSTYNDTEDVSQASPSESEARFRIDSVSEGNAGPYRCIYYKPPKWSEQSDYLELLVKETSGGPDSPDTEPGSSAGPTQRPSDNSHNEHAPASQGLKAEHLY

The target in test [2] is T1, LAIR1 on LAIR1 reporter cells.
For test [3], the target named is T2, human LAIR1 extracellular domain (ECD) protein with 6 HIS tag at the C-terminus (human, UniProt Q6GTX8 22-165).
T2 construct: Produced recombinantly in HEK293 cells; the whole entry is named here; also called LAIR1 ECD; LAIR1-ECD
T2 chain: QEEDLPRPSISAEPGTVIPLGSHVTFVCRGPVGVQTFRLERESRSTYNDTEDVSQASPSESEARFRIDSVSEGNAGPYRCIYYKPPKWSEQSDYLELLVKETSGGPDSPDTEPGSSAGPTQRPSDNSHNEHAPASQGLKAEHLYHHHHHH
Put plainly: ELISA, LAIR1 ECD coated, mAb titrated, anti-rabbit HRP. As for the experimental part: (§1) The inventors then used a concentration titration (0-10 μg/ml) by ELISA to determine the LAIR1 monoclonal antibody (mAbs) binding to human LAIR1 ECD. […] For FIGS. 2-39, X axis indicates the antibody concentrations and Y-axis is binding signals, measured as OD (450 nm). To perform the ELISA assay, LAIR1 ECD recombinant protein was coated on high absorption 96-well plates. Serial diluted (3-fold) LAIR1 mAb was added to the coated/blocked plates and detected using goat anti-rabbit F(ab′)2 conjugated HRP as secondary antibody. All assays were repeated 3 times and the titration curves were fitted using 4-parameter fitting curve using the GraphPad software for EC₅₀ estimation.
(§2) Serial dilutions of the LAIR1 monoclonal antibodies (IgGs or scFvs fragments), starting from […] and 3-fold titration down for 12 steps, were added to the 96-well plate for binding by incubating 45 minutes at 37° C. with a cover on the assay plate. Then the plates were washed with PBS containing Tween 20 (0.05% concentration) for 3 times and PBS one time. […] Detection was conducted by adding HRP substrate, TMB (ThermoFisher) for 10 minutes, and stopped by adding 50 μl/well of 2N H2504. The plates were read for absorbance at 450 nm using a plate reader (SpectraMax M4, Molecular Devices). Data were collected and graphed using a 4-parameter fitting curve with GrapPad Prism 7 software for EC₅₀ calculation.
A general note: In an ELISA, binding on a coated surface is turned into a signal by an enzyme label.

In test [4] the target is T1, LAIR1 on LAIR1 reporter cells. Put plainly: cell-based or functional assay.
Test [5] deals with T2, human LAIR1 extracellular domain (ECD) …. Kind of test: ELISA, LAIR1 ECD coated. As for the experimental part: as §1, §2
Test [6] concerns the target T1, LAIR1 on LAIR1 reporter cells. Put plainly: cell-based or functional assay.
Test [7] has as its target T3, recombinant LAIR1 (human, UniProt Q6GTX8 22-165, limits assumed).
T3 construct: also called LAIR1 (Octet analyte)
T3 chain: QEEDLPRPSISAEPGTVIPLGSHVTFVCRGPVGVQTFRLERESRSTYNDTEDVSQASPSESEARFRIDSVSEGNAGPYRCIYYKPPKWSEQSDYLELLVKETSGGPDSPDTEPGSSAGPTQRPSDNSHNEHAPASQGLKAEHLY
Kind of test: BLI (Octet), mAb on protein A sensor, recombinant LAIR1 0.1-200 nM, 1:1 fit. The procedure:
To perform the assay, antibody (30 μg/mL) was loaded to the proteins A sensor for 4 min, followed by a short buffering to establish baseline in kinetics buffer. The loaded sensors were then exposed to a series of recombinant LAIR1 concentrations (0.1-200 nM) for kinetic binding detection. Background subtraction was used to correct the sensor drifting. All experiments were performed with shaking at 1,000 rpm. Background wavelength shifts were measured from reference sensors that were loaded only with antibody. ForteBio's data analysis software was used to fit the data to a 1:1 binding model to extract an association rate and dissociation rate. The KD was calculated using the ratio […] using ForteBio's data analysis software 7.0.
(In general: Biolayer interferometry detects binding as a change in optical thickness at a sensor tip.)

Test [8] addresses T1, LAIR1 on LAIR1 reporter cells. Kind of test: cell-based or functional assay.

In turn, collagen I (ligand) registered a GFP+% of LAIR1 reporter cells, K562 coculture, no Ab (row Collagen I-ctrl) in test [1] of 42.5%. In addition, the GFP+% of LAIR1 reporter cells, collagen I coated, no Ab (row collagen I-ctrl) in test [2] amounted to 31.3%.

B1: LA-121 (antibody, V domains shown)
VH: EQSVEESGGRLVTPGTPLTLTCTASGFSLYKYNIQWVRQAPGKGLEYIGASTYAGYTYYASWAIGRVTISRTSTTVDLKMTSPTTEDTATYFCARHIDGDYSGYALWGPGTLVTISS
VL: ELDLTQTPASVSAAVGGTVTIKCQASQSIDTWFGWYQQKPGQSPKLLIYGASKLASGVPPRFKGSGSGTEFTLTISDLECADAATYYCQNTYYGVRYLGGAFGGGTEVEIK
notes: Rabbit monoclonal IgG
Turning to B1, in test [3], the EC50 – broadly, the concentration needed to bring the measured effect to its halfway point – is 0.21 nM. Also, in test [4], the “GFP+% of LAIR1 reporter cells, collagen I coated, soluble Ab and K562 cells” value (shortened to “GFP+% … soluble Ab and K562 cells”) was 0.891%. Also, the EC50 (read off the curve) (as a rule, the concentration at which the effect is half-maximal) in test [5] is around 30 ng/mL. Further, the “GFP+% of LAIR1 reporter cells, collagen I coated, soluble Ab” value in test [6] worked out at 1.11%. In addition, in test [7], the Kd (as a rule, the equilibrium constant for the complex coming apart) is 0.127 nM; the koff (usually the first-order rate constant of dissociation) is 2.41e-05 s⁻¹; the association rate constant (kon) – broadly, the rate constant with which the complex forms – worked out at 190000 M⁻¹ s⁻¹.

B2: LA-94 (antibody, V domains shown)
VH: EQSLEESEGRLVTPGTPLTLTCTASGFSLSGYHMSWVRQAPGKGLEYIGYISERGTSYYANWAKGRFTVSKSSSSTVVLSIISPTAEDTATYFCARYGGGDSAFILWGPGTLVTISS
VL: ELVMTQTPASVSGPVGGTVTIKCQASHNIDNSLAWYQQKPGQPPKLLIYKASTLASGVSSRFKGSGSGTEYTLTISDLECADAATYFCQGTIGLNSGCAFGGGTEVEIK
notes: Rabbit monoclonal IgG; Called an agonist antibody; also called mAb LA-94; agonist Ab LA-94
On to B2, for which, in test [3], a half-maximal effect (EC50) was put at 0.12 nM. Besides, in test [8], the “GFP+ of LAIR1 reporter cells, Abs coated” value was above 40%; the “GFP+ of LAIR1 reporter cells, Collagen I coated” value is above 40%; the “GFP+ of LAIR1 reporter cells, Collagen I coated + K562” value (“GFP+ … Collagen I coated + K562” for short) is above 40%. In addition, in test [4], the “GFP+% … soluble Ab and K562 cells” value is 24.6%. For the same molecule, the “EC50 (read off the curve)” value in test [5] was around 20 ng/mL. Also, in test [6], the “GFP+% of LAIR1 reporter cells, collagen I coated, soluble Ab” value worked out at 50.4%.

B3: LA-259-2 (antibody, V domains shown)
VH: QSVKESGGRLVTPGTPLTLTCTASGFSLYKYNIQWVRQAPGKGLEYIGASTYAGYTYYASWAKGRVTISRTSTTVDLKMTSPTTEDTATYFCARHIDGDYSGYALWGPGTLVTISS
VL: ELVMTQTPASVSAAVGGTVTIKCQASQSIGTWFAWYQQKPGQSPKLLIYGPSKLASGVPPRFKGSGSGTEFTLTISDLECDDAATYYCQSNGGSISNGWGSFGGGTEVVVK
notes: Rabbit monoclonal IgG
B3 came in with an EC50 in test [3] of 0.22 nM. Moreover, in test [5], the “EC50 (read off the curve)” value was around 30 ng/mL. Further, in test [7], the Kd was 0.196 nM, the koff is 4.23e-05 s⁻¹ and the kon was found to be 216000 M⁻¹ s⁻¹.

B4: LA-192 (antibody, V domains shown)
VH: EQSLEESGGRLVTPGTPLTLTCTASGFSLSSYYMTWVRQAPGKGLEWIGYMHTGGGVVYASWATGRFTISRTSTTVDLKITSPTTEDTATYFCARSHAGYSTINRLDLWGVGTLVTISS
VL: ELDLTQTPSSVSAAVGGTVTISCQSSPSVYTNNLSWFQQKPGQPPKLLIYDASKLESGVPSRFRGSGSGTQFTLTISDVQCDDAATYYCAGAYLSDSDTTFGGGTELEIK
notes: Rabbit monoclonal IgG; Called an agonist antibody
Consider B4, for which, in test [3], the EC50 stood at 0.04 nM. Further, in test [8], the “GFP+ of LAIR1 reporter cells, Abs coated” value is above 40%; the “GFP+ of LAIR1 reporter cells, Collagen I coated” value was above 40%; the “GFP+ … Collagen I coated + K562” value is above 40%. Further, in test [4], the “GFP+% … soluble Ab and K562 cells” value came to 18.7%. Further, the “EC50 (read off the curve)” value in test [5] was around 20 ng/mL. Further, in test [6], the “GFP+% of LAIR1 reporter cells, collagen I coated, soluble Ab” value was determined as 63.2%.

B5: LA-219 (antibody, V domains shown)
VH: EQSVESGGGLITPGGTLTLTCTASGFTVTRYYMNWVRQAPGKGLEWIGYIYASSKTYYANWAKGRFTISKTSTTVDLKMTSLTAEDTGTYFCARGGVGNSGLNLDLWGPGTLVTISS
VL: ELDMTQTPASVSEPVGGTVTIKCQASQSIGSWLAWYQQKPGQPPKLLIYQASRLASGVSSRFGGSGSGTEFTLTISDLECADAATYYCQQAEYSGDVENTFGGGTEVVVK
notes: Rabbit monoclonal IgG; Called a potential antagonist antibody
B5 showed an EC50 in test [3] of 0.06 nM. In addition, in test [8], the “GFP+ of LAIR1 reporter cells, Collagen I coated” value is below 5% and the “GFP+ … Collagen I coated + K562” value was below 5%. The “GFP+% … soluble Ab and K562 cells” value in test [4] came to 2.11%. Further, the “EC50 (read off the curve)” value in test [5] is around 8 ng/mL. In addition, the “GFP+% of LAIR1 reporter cells, collagen I coated, soluble Ab” value in test [6] came to 0.924%.

B6: LA-235 (antibody, V domains shown)
VH: SSSVEESEGRLVTPGTPLTLTCTVSGFSLSSYTMGWVRQAPGEGLEWIGTTSNDGSTYYASWAKGRFTISKTSSTTVDLMMTSLTTEDTATYFCVRGTNIRSLWGPGTLVTISS
VL: ELVMTQTPASVEAAVGGTVTIKCQASQSIGSNLAWYQQKPGQPPKLLIYLASALASGVSSRFKGSGSGSDFTLTISDLECADAATYYCQCTYGSSNNNNYGDPFGGGTEVEIK
notes: Rabbit monoclonal IgG; Called an antagonist antibody
In test [3], B6 came in with an EC50 of 0.03 nM. In test [8], the “GFP+ of LAIR1 reporter cells, Abs coated” value was above 40% and the “GFP+ of LAIR1 reporter cells, Collagen I coated” value is below 5%. Also, the “GFP+% … soluble Ab and K562 cells” value in test [4] stood at 19%. Further, the “EC50 (read off the curve)” value in test [5] is around 10 ng/mL. For the same molecule, in test [6], the “GFP+% of LAIR1 reporter cells, collagen I coated, soluble Ab” value is 5.76%.

B7: LA-258-2 (antibody, V domains shown)
VH: QSVKESGGDLVKPEGSLTLTCKASGFSFSNSYYMCWVRQAPGKGLEWIACIYTGSTSGTYYASWVNGRFTISKTPSTTVTLQMTSLTVADTATYFCSRKLTNFNGAYLDLWGPGTLVTISS
VL: ELVMTQTPSSVEAAVGGTVTIKCQASQSIYSYLAWYQQKPGQPPKVLIYKASTLASGVPSRFKGSGSGTDFTLTISDLECADAATYYCQANNGGSDNNFGGGTEVEIK
notes: Rabbit monoclonal IgG
B7: the EC50 in test [3] came to 0.37 nM. Moreover, the “EC50 (read off the curve)” value in test [5] is around 50 ng/mL. Besides, in test [7], the Kd amounted to 0.0337 nM, the koff is 8.02e-06 s⁻¹ and the kon turned out to be 238000 M⁻¹ s⁻¹.

B8: LA-258-3 (antibody, V domains shown)
VH: QSVKESGGDLVKPEGSLTLTCKASGFSFSNSYYMCWVRQAPGKGLEWIACIYTGSTSGTYYASWVNGRFTISKTPSTTVTLQMTSLTVADTATYFCSRKLTNFNGAYLDLWGPGTLVTISS
VL: ELVLTQTPASVEAAVGGTVTINCQASQSISNLLAWYQQKPGQPPKVLIYKASTLASGVPSRFKGSGSGTDFTLTISDLECADAATYYCQANNGGSDNNFGGGTEVVVKA
notes: Rabbit monoclonal IgG
In test [3], B8 displayed an EC50 of 0.3 nM. For the same molecule, in test [5], the “EC50 (read off the curve)” value was around 50 ng/mL. In addition, in test [7], the Kd came to 5.58 nM, the koff was found to be 0.00222 s⁻¹ and the kon worked out at 397000 M⁻¹ s⁻¹.
